{"source": "patent US7070973B2", "about": "“Butyrylcholinesterase variants and methods of use” (priority 2000, dated 2006)", "molecules": {"B1": {"name": "A328Y (protein, UniProt P06276 29-602, looked up, variant A328Y)", "Cholinesterase": "EDDIIIATKNGKVRGMNLTVFGGTVTAFLGIPYAQPPLGRLRFKKPQSLTKWSDIWNATKYANSCCQNIDQSFPGFHGSEMWNPNTDLSEDCLYLNVWIPAPKPKNATVLIWIYGGGFQTGTSSLHVYDGKFLARVERVIVVSMNYRVGALGFLALPGNPEAPGNMGLFDQQLALQWVQKNIAAFGGNPKSVTLFGESAGAASVSLHLLSPGSHSLFTRAILQSGSFNAPWAVTSLYEARNRTLNLAKLTGCSRENETEIIKCLRNKDPQEILLNEAFVVPYGTPLSVNFGPTVDGDFLTDMPDILLELGQFKKTQILVGVNKDEGTYFLVYGAPGFSKDNNSIITRKEFQEGLKIFFPGVSEFGKESILFHYTDWVDDQRPENYREALGDVVGDYNFICPALEFTKKFSEWGNNAFFYYFEHRSSKLPWPEWMGVMHGYEIEFVFGLPLERRDNYTKAEEILSRSIVKRWANFAKYGNPNETQNNSTSWPVFKSTEQKYLTLNTESTRIMTKLRAQQCRFWTSFFPKVLEMTGNIDEAEWEWKAGFHRWNNYMMDWKNQFNDYTSKKESCVGL"}, "B2": {"name": "P285Q (protein)", "chain": "B1 Cholinesterase with P285Q, Y328A", "modifications": "Human Butyrylcholinesterase variant"}, "B3": {"name": "P285S (protein)", "chain": "B1 Cholinesterase with P285S, Y328A", "modifications": "Human Butyrylcholinesterase variant"}, "B4": {"name": "butyrylcholinesterase (protein, listed as Homo sapiens)", "chain": "B1 Cholinesterase with Y328A"}, "B5": {"name": "S287G (protein)", "chain": "B1 Cholinesterase with S287G, Y328A", "modifications": "Human Butyrylcholinesterase variant"}}, "key": {"[1]": {"assay": "Isotope tracer cocaine hydrolysis assay, Lineweaver-Burk plot", "type": "biochemical", "settings": "2 hour incubation at 37° C., x intercept of double-reciprocal plot", "excerpt": "(§1) At the conclusion of the isotope tracer assay, an aliquot of the reaction mix is acidified in order to take advantage of the solubility difference between the product and the substrate at pH 3.0."}, "[2]": {"settings": "Gatley 1991; Xie et al. 1999; read-out: Km for cocaine hydrolysis, previously published values; cited from earlier work"}, "cocaine toxicity": {"test_system": "cocaine toxicity", "settings": "infusion of cocaine at 1 mg/kg/min, catecholamine levels standardized; cited from earlier work"}, "[3]": {"settings": "Xie et al. 1999; cited from earlier work"}, "[4]": {"assay": "Spectrophotometric (240 nm) cocaine binding and hydrolysis assay with purified butyrylcholinesterase variants", "type": "biochemical", "experimental": "[…]. Pharmacol. 41:1249–1254 (1991). Km values were determined in 0.1M potassium phosphate pH 7.0 at 30° C. for (−)-cocaine. Vmax values and Km values were calculated using Sigma Plot for Macintosh (Jandel Scientific, San Rafael, Calif.).\nOnce Vmax values and Km values were calculated, the number of active sites in each butyrylcholinesterase preparation was determined. The titration of active sites was performed with chlorpyrifos oxon (MET-674B, Chem Service, West Chester, Pa.), an inhibitor of butyrylcholinesterase. One molecule of chlorpyrifos oxon binds and inhibits one molecule of butyrylcholinesterase, which allows for calculation of the number of active sites. Based on the number of active sites, the kcat value for each variant was calculated (Table 3). […]."}, "[5]": {"assay": "Microtiter [3H]-cocaine isotope tracer hydrolysis assay with immobilized butyrylcholinesterase variants", "type": "biochemical", "settings": "for increase in cocaine hydrolysis activity compared to human butyrylcholinesterase: region 5 library variants, Examples II through VI; for enhanced cocaine hydrolase activity (library screen): region five library, hydrolysis of [3H]-cocaine", "excerpt": "as §1\nThe supernatants isolated from each of the butyrylcholinesterase variant library clones contains variable butyrylcholinesterase enzyme concentrations.\nAt least three approaches are used to either increase the assay sensitivity or the assay signal."}, "[6]": {"settings": "stored at 4° C., after 18 months (Lynch et al.); cited from earlier work"}}, "note": "Changes are numbered by the printed parent chain. In names and notes the source's numbering stands. Several values for one entry are separate records, joined by “and”; a condition that tells them apart may be missing. Equal values may be shown once. Read-outs that look alike come from different tables or passages of the source."}
{"molecule": "horse butyrylcholinesterase", "values": [{"measurement": "Km", "setting": "[1]", "result": "~37.6", "unit": "µM"}, {"measurement": "Km", "setting": "[2]", "result": "38 µM and 45 µM"}]}
{"molecule": "COC(=O)[C@H]1[C@@H](OC(=O)c2ccccc2)C[C@@H]2CC[C@H]1N2C", "note": "[cocaine]", "values": [{"measurement": "LD90", "setting": "cocaine toxicity", "result": 16, "unit": "mg/kg"}]}
{"molecule": "B1", "values": [{"measurement": "increase in cocaine hydrolysis activity compared to human butyrylcholinesterase", "setting": "[3]", "result": "four"}, {"measurement": "Km", "setting": "[4]; (−)-cocaine, 0.1M potassium phosphate pH 7.0 at 30° C.", "result": 9, "unit": "µM"}, {"measurement": "kcat (hydrolysis rate)", "setting": "[4]; (−)-cocaine, active sites titrated with chlorpyrifos oxon", "result": 0.17, "unit": "s⁻¹"}, {"measurement": "Hydrolyzes cocaine faster than wild-type", "setting": "[4]; compared to wild-type butyrylcholinesterase", "result": "Hydrolyzes cocaine 4 times faster than wild-type"}]}
{"molecule": "B2", "values": [{"measurement": "increase in cocaine hydrolysis activity compared to human butyrylcholinesterase", "setting": "[5]", "result": "four and approximately four"}, {"measurement": "enhanced cocaine hydrolase activity (library screen)", "setting": "[5]", "result": "enhanced cocaine hydrolase activity"}]}
{"molecule": "B3", "values": [{"measurement": "increase in cocaine hydrolysis activity compared to human butyrylcholinesterase", "setting": "[5]", "result": "approximately three"}, {"measurement": "enhanced cocaine hydrolase activity (library screen)", "setting": "[5]", "result": "enhanced cocaine hydrolase activity"}]}
{"molecule": "B4", "values": [{"measurement": "original activity retained", "setting": "[6]", "result": "over 90%"}]}
{"molecule": "B5", "values": [{"measurement": "increase in cocaine hydrolysis activity compared to human butyrylcholinesterase", "setting": "[5]", "result": "four"}, {"measurement": "enhanced cocaine hydrolase activity (library screen)", "setting": "[5]", "result": "enhanced cocaine hydrolase activity"}]}
